Test results reported in PMC5089669, “Biocatalytic Properties and Structural Analysis of Eugenol Oxidase from Rhodococcus jostii RHA1: A Versatile Oxidative Biocatalyst” (Chembiochem, 2016).

Target: the molecule itself
Assay: crystal structure; sitting-drop vapour diffusion at 20 °C; EUGO 15 mg/mL in 10 mM Tris-HCl pH 7.5 with 24 % PEG6000, 0.1 M Tris-HCl pH 8.0; crystals soaked with isoeugenol; two subunits in the asymmetric unit

B1: Eugenol oxidase (EUGO) from Rhodococcus jostii RHA1 (enzyme, UniProt Q0SBK1 1-526, looked up)
chain: MTRTLPPGVSDERFDAALQRFRDVVGDKWVLSTADELEAFRDPYPVGAAEANLPSAVVSPESTEQVQDIVRIANEYGIPLSPVSTGKNNGYGGAAPRLSGSVIVKTGERMNRILEVNEKYGYALLEPGVTYFDLYEYLQSHDSGLMLDCPDLGWGSVVGNTLDRGVGYTPYGDHFMWQTGLEVVLPQGEVMRTGMGALPGSDAWQLFPYGFGPFPDGMFTQSNLGIVTKMGIALMQRPPASQSFLITFDKEEDLEQIVDIMLPLRINMAPLQNVPVLRNIFMDAAAVSKRTEWFDGDGPMPAEAIERMKKDLDLGFWNFYGTLYGPPPLIEMYYGMIKEAFGKIPGARFFTHEERDDRGGHVLQDRHKINNGIPSLDELQLLDWVPNGGHIGFSPVSAPDGREAMKQFEMVRNRANEYNKDYAAQFIIGLREMHHVCLFIYDTAIPEAREEILQMTKVLVREAAEAGYGEYRTHNALMDDVMATFNWGDGALLKFHEKIKDALDPNGIIAPGKSGIWSQRFRGQNL
modifications: FAD covalently bound: bond between His390 and the C8M atom of the flavin ring
notes: eugenol oxidase (EUGO), flavoprotein oxidase of the VAO family, Rhodococcus jostii RHA1; source: E. coli culture
stoichiometry N: 2
